# In the supplement of paper PMC9112550, “Optimization of the antimicrobial peptide Bac7 by deep mutational scanning” (BMC Biology, 2022):
# Tested on: Escherichia coli TOP10
# Test: shrunken log2 fold change of peptide-encoding DNA abundance (4.5 h post-induction vs induction); higher = less antimicrobial activity (less host growth inhibition)
# Settings: time post-induction: 4.5 h; library: site-saturation at positions 5, 18, 19, 20
# 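Also: peptides expressed intracellularly from a pBAD plasmid library in pooled LB shake-flask culture, induced with 0.3% L-arabinose, DNA abundance read by NGS, three biological replicates, DESeq2 with apeglm shrinkage.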
row,Sequence,shrunken log2 fold change
1,RRIRDRPPRLPRPRPRPDGLPRP,0.107
2,RRIRHRPPRLPRPRPRPPGSPRP,0.0725
3,RRIRIRPPRLPRPRPRPFWRPRP,-0.00848
4,RRIRVRPPRLPRPRPRPGPLPRP,0.0392
5,RRIRPRPPRLPRPRPRPLFVPRP,-0.176
6,RRIRGRPPRLPRPRPRPLNHPRP,0.0752
7,RRIRIRPPRLPRPRPRPFMQPRP,-0.91
8,RRIRGRPPRLPRPRPRPLMDPRP,1.04
9,RRIRLRPPRLPRPRPRPRLHPRP,-0.237
10,RRIRVRPPRLPRPRPRPQEFPRP,-0.06
11,RRIRGRPPRLPRPRPRPVQPPRP,0.95
12,RRIRIRPPRLPRPRPRPHLIPRP,-0.245
13,RRIRPRPPRLPRPRPRPEAIPRP,0.102
14,RRIRTRPPRLPRPRPRPHRMPRP,-0.267
15,RRIRHRPPRLPRPRPRPVTEPRP,-0.0954
16,RRIRERPPRLPRPRPRPVAYPRP,-0.178
17,RRIRIRPPRLPRPRPRPFIYPRP,-0.899
18,RRIRVRPPRLPRPRPRPTTEPRP,0.14
19,RRIRLRPPRLPRPRPRPAPGPRP,0.432
20,RRIRMRPPRLPRPRPRPAWLPRP,0.818
21,RRIRWRPPRLPRPRPRPGPQPRP,0.938
22,RRIRDRPPRLPRPRPRPSQWPRP,-0.119

row,Sequence,shrunken log2 fold change
1,RRIRPRPPRLPRPRPRPFAGPRP,0.0806
2,RRIRARPPRLPRPRPRPVHWPRP,0.579
3,RRIRRRPPRLPRPRPRPYDFPRP,-0.296
4,RRIRYRPPRLPRPRPRPSNIPRP,-1.25
5,RRIRRRPPRLPRPRPRPFLYPRP,0.0538
6,RRIRLRPPRLPRPRPRPYMIPRP,-0.449
7,RRIRCRPPRLPRPRPRPCWYPRP,0.0339
8,RRIRPRPPRLPRPRPRPLTIPRP,-0.275
9,RRIRWRPPRLPRPRPRPEYRPRP,0.0624
10,RRIRARPPRLPRPRPRPCGKPRP,0.659
11,RRIRMRPPRLPRPRPRPKNQPRP,0.618
12,RRIRHRPPRLPRPRPRPLILPRP,0.0886
13,RRIRSRPPRLPRPRPRPVNDPRP,-0.389
14,RRIRIRPPRLPRPRPRPWSWPRP,-0.0152
15,RRIRERPPRLPRPRPRPAEGPRP,-0.179
16,RRIRDRPPRLPRPRPRPRKVPRP,0.187
17,RRIRIRPPRLPRPRPRPGHCPRP,-0.247
18,RRIRARPPRLPRPRPRPWVVPRP,0.0153
19,RRIRRRPPRLPRPRPRPMTRPRP,0.315
20,RRIRGRPPRLPRPRPRPRCGPRP,0.751
21,RRIRERPPRLPRPRPRPTGNPRP,-0.267
22,RRIRYRPPRLPRPRPRPEGPPRP,0.12

row,Sequence,shrunken log2 fold change
1,RRIRYRPPRLPRPRPRPDNPPRP,-0.877
2,RRIRERPPRLPRPRPRPLDAPRP,-0.17
3,RRIRERPPRLPRPRPRPAGWPRP,0.555
4,RRIRSRPPRLPRPRPRPWHHPRP,-0.0809
5,RRIRFRPPRLPRPRPRPLWTPRP,-0.0265
6,RRIRYRPPRLPRPRPRPHHLPRP,-0.329
7,RRIRYRPPRLPRPRPRPVICPRP,-0.0887
8,RRIRERPPRLPRPRPRPNQFPRP,-0.525
9,RRIRARPPRLPRPRPRPEYTPRP,-0.0194
10,RRIRWRPPRLPRPRPRPPIGPRP,0.324
11,RRIRRRPPRLPRPRPRPFLVPRP,-0.566
12,RRIRVRPPRLPRPRPRPCPLPRP,-0.418
13,RRIRRRPPRLPRPRPRPRVYPRP,0.335
14,RRIRLRPPRLPRPRPRPQPEPRP,0.419
15,RRIRNRPPRLPRPRPRPCDEPRP,-0.035
16,RRIRGRPPRLPRPRPRPRSPPRP,0.449
17,RRIRMRPPRLPRPRPRPNHVPRP,-0.409
18,RRIRYRPPRLPRPRPRPMSQPRP,-0.0802
19,RRIRDRPPRLPRPRPRPMDVPRP,-0.0846
20,RRIRPRPPRLPRPRPRPCQHPRP,-0.161
21,RRIRTRPPRLPRPRPRPPPCPRP,0.292
22,RRIRIRPPRLPRPRPRPGVGPRP,0.435

row,Sequence,shrunken log2 fold change
1,RRIRGRPPRLPRPRPRPKIQPRP,0.369
2,RRIRIRPPRLPRPRPRPSTNPRP,-0.573
3,RRIRARPPRLPRPRPRPNQSPRP,0.0591
4,RRIRRRPPRLPRPRPRPDEYPRP,-0.0588
5,RRIRKRPPRLPRPRPRPQCCPRP,-0.101
6,RRIRIRPPRLPRPRPRPHTHPRP,-0.92
7,RRIRCRPPRLPRPRPRPGVSPRP,0.0886
8,RRIRPRPPRLPRPRPRPCADPRP,0.213
9,RRIRNRPPRLPRPRPRPYKVPRP,-0.324
10,RRIRCRPPRLPRPRPRPTYAPRP,0.125
11,RRIRLRPPRLPRPRPRPMDPPRP,0.0507
12,RRIRWRPPRLPRPRPRPLCQPRP,0.0938
13,RRIRGRPPRLPRPRPRPEDWPRP,1.45
14,RRIRSRPPRLPRPRPRPCTDPRP,-0.11
15,RRIRDRPPRLPRPRPRPKWIPRP,-0.0438
16,RRIRERPPRLPRPRPRPFVHPRP,-0.435
17,RRIRLRPPRLPRPRPRPCNVPRP,-0.3
18,RRIRMRPPRLPRPRPRPWMPPRP,0.0554
19,RRIRARPPRLPRPRPRPGGNPRP,0.2
20,RRIRLRPPRLPRPRPRPWLLPRP,-0.172
21,RRIRFRPPRLPRPRPRPTYWPRP,0.385
22,RRIRNRPPRLPRPRPRPPPIPRP,0.801

row,Sequence,shrunken log2 fold change
1,RRIRKRPPRLPRPRPRPDETPRP,3.04
2,RRIRFRPPRLPRPRPRPPMFPRP,-0.0657
3,RRIRLRPPRLPRPRPRPSNIPRP,-0.103
4,RRIRERPPRLPRPRPRPMRGPRP,1.19
5,RRIRKRPPRLPRPRPRPVIPPRP,-0.26
6,RRIRSRPPRLPRPRPRPELGPRP,0.547
7,RRIRARPPRLPRPRPRPEMDPRP,0.41
8,RRIRWRPPRLPRPRPRPWGEPRP,0.039
9,RRIRIRPPRLPRPRPRPNEFPRP,-0.295
10,RRIRTRPPRLPRPRPRPIEKPRP,-0.478
11,RRIRLRPPRLPRPRPRPGLDPRP,-0.0233
12,RRIRSRPPRLPRPRPRPYWSPRP,-0.414
13,RRIRARPPRLPRPRPRPFQKPRP,0.121
14,RRIRARPPRLPRPRPRPGVRPRP,0.797
15,RRIRNRPPRLPRPRPRPQSNPRP,-0.428
16,RRIRWRPPRLPRPRPRPKDRPRP,0.159
17,RRIRSRPPRLPRPRPRPQVEPRP,0.0664
18,RRIRLRPPRLPRPRPRPTNTPRP,-0.375
19,RRIRTRPPRLPRPRPRPVQTPRP,0.216
20,RRIRTRPPRLPRPRPRPIMCPRP,-0.255
21,RRIRPRPPRLPRPRPRPSWDPRP,-0.0474
